* marks the point of attachment. 5FAM = O=C1OC2(c3ccc(O)cc3Oc3cc(O)ccc32)c2ccc(C(=O)*)cc21; Ahx = NCCCCCC(=O)O

The target in this assay is T1, N-terminal His-tag PCNA (recombinant (His)6-PCNA fusion protein; Proliferating Cell Nuclear Antigen) (Homo sapiens (Human), UniProt P12004 1-261).
T1 construct: Expressed in E. coli BL21 (DE3) from vector pEV-L8, which carries an N-terminal His-tag and a TEV protease site; No tag cleavage is described; also called His-tagged PCNA; recombinant PCNA
Briefly: fluorescence polarization; fixed FAM-PL (5 nM) titrated with two-fold increasing recombinant His-tagged PCNA. The source says: [a]N-substituted side chains listed from N-terminus to most C-terminal [b]as determined by high resolution electrospray ionization or MALDI-TOF [c]based on dry mass recovery after HPLC purification After synthesis and purification, peptoids were screened in a fluorescence polarization (FP) assay to find ligands that disrupted the interaction between His-tagged PCNA and fluorescein-labeled Pogo Ligase peptide (FAM-PL) (Kontopidis, G., et al. Proc. Natl. Acad. Sci. U.S.A. 2005, 102 (6), 1871-1876). In the design of the assay, conditions were adopted from Pedley et al., 2016, to improve the dynamic range between bound and unbound FAM-PL. While an acceptable Z-score was determined using the original 10 nM peptide and 100 nM PCNA (FIG. 4), an improved dynamic range was established by adjusting the ligand and receptor concentrations. […]
Increasing amounts of recombinant (His)_6-PCNA protein (SEQ ID NO: 3) were prepared in FP binding buffer (25 mM HEPES at pH 7.4, 10% glycerol, 0.01% Triton X-100), with an 11-step 2-fold dilution series, and a top concentration of 30 μM. […] Fluorescence polarization and resultant anisotropy were measured on a BioTek Synergy 4 Multi-Detection Microplate Reader using an excitation filter of 485 nm and an emission filter of 530 nm, each with a 20 nm band-pass.
A general note: Polarisation of emitted light reports the rotation of a fluorescent probe.

T1 sequence (P12004 other isoform, or with tags, fused parts or gaps limits assumed): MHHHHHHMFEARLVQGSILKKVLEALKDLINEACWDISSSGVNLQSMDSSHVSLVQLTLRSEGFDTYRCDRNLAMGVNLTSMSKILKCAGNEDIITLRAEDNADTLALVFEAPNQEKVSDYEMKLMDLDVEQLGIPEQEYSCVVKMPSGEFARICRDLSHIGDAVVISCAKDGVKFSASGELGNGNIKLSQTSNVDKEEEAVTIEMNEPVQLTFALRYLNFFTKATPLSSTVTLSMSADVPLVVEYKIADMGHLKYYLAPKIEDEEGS

B1: 5-FAM-labeled POGO ligase peptide (FAM-PL) (peptide)
peptide: {5FAM-Ahx}-SAVLQKKITDYFHPKK-NH2
notes: also called fluorescein-labeled Pogo Ligase peptide; PL peptide
For B1, the Kd was found to be 107 nM.

One may read the Kd as the constant that tells how readily two partners part at equilibrium.

For the origin of these results see US10758588 (PURDUE RESEARCH FOUNDATION, dated 2020).
